Measurements taken from paper PMC3655264, “A Large-Scale Conformational Change Couples Membrane Recruitment to Cargo Binding in the AP2 Clathrin Adaptor Complex” (Cell, 2010).
pKd: −log10 of the molar value.

Legend:
[1] = molecular target: fluorescein-labeled TGN38 YxxΦ peptide (ASDYQRL); test: fluorescence polarisation; stopped-flow polarized fluorescence, pre-steady-state kinetics, without heparin; 1 μM fluorescein peptide, protein at pseudo-first order excess; single exponential fits, kapp = koff + kon.C
[2] = molecular target: fluorescein-labeled TGN38 YxxΦ peptide (ASDYQRL); test: fluorescence polarisation; stopped-flow polarized fluorescence, pre-steady-state kinetics; AP2 preincubated for 30 min with 200 μM heparin; 1 μM fluorescein peptide
[3] = molecular target: fluorescein-labeled TGN38 YxxΦ peptide (ASDYQRL); test: fluorescence polarisation; equilibrium anisotropy titration with 500 μM polymeric heparin (~50 subunits); 20 nM fluorescein peptide; 21°C; 10 mM Tris pH 8.7, 250 mM NaCl
[4] = molecular target: liposomes displaying both TGN38 YxxΦ peptide (m4) and CD4 dileucine peptide (m5); test: SPR; settings: 10% PtdIns4,5P2 + 0.5% TGN38 + 0.5% CD4 liposomes; five AP2 concentrations ranging from 50 nM to 1 μM
[5] = molecular target: lipid-linked phosphorylated CD4 dileucine sorting signal peptide (…(SP)…) displayed in liposomes; test: SPR; settings: for pKd: 10% PtdIns4,5P2 + 1% CD4P liposomes, five AP2 concentrations ranging from 50 nM to 1 μM
[6] = molecular target: lipid-linked TGN38 sorting motif peptide (…) displayed in liposomes; test: SPR; settings: for pKd: 10% PtdIns4,5P2 + 1% TGN38 liposomes, five AP2 concentrations ranging from 50 nM to 1 μM
[7] = molecular target: liposomes containing 10% PtdIns4,5P2 (no cargo peptide); test: SPR; settings: 10% PtdIns4,5P2 liposomes; five AP2 concentrations ranging from 50 nM to 1 μM
[8] = molecular target: lipid-linked TGN38 sorting motif peptide (…) displayed in liposomes; test: not stated; unpublished data (S.H.); binding of AP2 cores to YxxΦ/PtdIns4,5P2-containing liposomes
[9] = molecular target: lipid-linked phosphorylated CD4 dileucine sorting signal peptide (…(SP)…) displayed in liposomes; test: SPR; peptido-liposomes with 10% PtdIns4,5P2 and lipid-linked peptide captured on an L1 sensor surface (BIAcore 3000, T100); AP2 cores injected; 10 mM Tris pH 8.7, 250 mM NaCl, 1 mM DTT; corrected for binding to PC/PE or PtdIns4,5P2 liposomes; apparent
Target sequence in this assay (peptide, as listed by the source): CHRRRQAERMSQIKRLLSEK

[10] = molecular target: lipid-linked TGN38 sorting motif peptide (…) displayed in liposomes; test: as above

AP2 core (recombinant; α trunk, β2 trunk, myc-tagged μ2, σ2) (from UniProt P63010;P84092;P62743) αPIP- (substitutions in the PtdIns4,5P2-binding site of α; not printed), sequence (P62743 whole entry, looked up, stated change not applied): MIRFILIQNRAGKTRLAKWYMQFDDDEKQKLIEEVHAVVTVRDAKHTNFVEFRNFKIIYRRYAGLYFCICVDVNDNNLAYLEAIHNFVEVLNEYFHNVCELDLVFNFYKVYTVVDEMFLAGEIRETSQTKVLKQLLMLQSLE
AP2 core (recombinant; α trunk, β2 trunk, myc-tagged μ2, σ2) (from UniProt P63010;P84092;P62743) αPIP- (substitutions in the PtdIns4,5P2-binding site of α; not printed), sequence (P84092 whole entry, looked up, stated change not applied): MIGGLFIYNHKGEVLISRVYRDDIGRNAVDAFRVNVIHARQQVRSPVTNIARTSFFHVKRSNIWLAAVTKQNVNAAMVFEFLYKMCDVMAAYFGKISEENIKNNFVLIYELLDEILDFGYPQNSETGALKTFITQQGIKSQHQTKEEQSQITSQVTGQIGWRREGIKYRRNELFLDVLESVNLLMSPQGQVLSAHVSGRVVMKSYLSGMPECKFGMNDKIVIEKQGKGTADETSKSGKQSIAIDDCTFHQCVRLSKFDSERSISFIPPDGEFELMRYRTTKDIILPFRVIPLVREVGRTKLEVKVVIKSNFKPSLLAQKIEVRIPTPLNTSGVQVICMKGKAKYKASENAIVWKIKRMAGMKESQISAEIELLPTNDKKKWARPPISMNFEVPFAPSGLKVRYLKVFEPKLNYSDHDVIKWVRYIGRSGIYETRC
AP2 core (recombinant; α trunk, β2 trunk, myc-tagged μ2, σ2) (from UniProt P63010;P84092;P62743) αPIP- (substitutions in the PtdIns4,5P2-binding site of α; not printed), sequence (P63010 whole entry, looked up, stated change not applied): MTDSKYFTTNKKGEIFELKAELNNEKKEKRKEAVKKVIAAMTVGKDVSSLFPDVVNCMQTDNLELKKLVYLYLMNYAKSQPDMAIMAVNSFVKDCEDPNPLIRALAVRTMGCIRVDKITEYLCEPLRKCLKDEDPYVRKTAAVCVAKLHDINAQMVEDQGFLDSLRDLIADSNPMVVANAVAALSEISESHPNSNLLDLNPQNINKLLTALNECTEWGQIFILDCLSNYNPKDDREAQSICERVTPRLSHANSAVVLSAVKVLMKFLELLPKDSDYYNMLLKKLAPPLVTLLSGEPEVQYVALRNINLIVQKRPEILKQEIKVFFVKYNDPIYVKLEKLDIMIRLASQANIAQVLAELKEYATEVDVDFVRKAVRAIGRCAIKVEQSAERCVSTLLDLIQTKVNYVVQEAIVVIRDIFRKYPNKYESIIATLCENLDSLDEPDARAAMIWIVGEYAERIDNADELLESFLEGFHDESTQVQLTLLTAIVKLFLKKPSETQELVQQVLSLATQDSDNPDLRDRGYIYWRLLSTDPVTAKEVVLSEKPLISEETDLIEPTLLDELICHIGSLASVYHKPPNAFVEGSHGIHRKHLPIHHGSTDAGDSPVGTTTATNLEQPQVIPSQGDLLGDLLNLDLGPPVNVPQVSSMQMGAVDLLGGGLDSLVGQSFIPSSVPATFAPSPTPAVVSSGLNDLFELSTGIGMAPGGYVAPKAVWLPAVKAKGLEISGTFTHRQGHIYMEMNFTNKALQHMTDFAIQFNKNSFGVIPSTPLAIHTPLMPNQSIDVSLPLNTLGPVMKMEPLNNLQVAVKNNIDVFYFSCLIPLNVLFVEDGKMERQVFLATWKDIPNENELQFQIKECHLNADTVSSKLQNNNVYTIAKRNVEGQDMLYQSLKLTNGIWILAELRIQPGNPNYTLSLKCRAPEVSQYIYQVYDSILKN
AP2 core (recombinant; α trunk, β2 trunk, myc-tagged μ2, σ2) (from UniProt P63010;P84092;P62743) μ2PIP- (μ2 5K>E and μ2 KRR>E combined; individual residues not printed), sequence (P62743 whole entry, looked up, change not shown): as the sequence (P62743 whole entry, looked up, stated change not applied) above
AP2 core (recombinant; α trunk, β2 trunk, myc-tagged μ2, σ2) (from UniProt P63010;P84092;P62743) μ2PIP- (μ2 5K>E and μ2 KRR>E combined; individual residues not printed), sequence (P84092 whole entry, looked up, change not shown): as the sequence (P84092 whole entry, looked up, stated change not applied) above
AP2 core (recombinant; α trunk, β2 trunk, myc-tagged μ2, σ2) (from UniProt P63010;P84092;P62743) μ2PIP- (μ2 5K>E and μ2 KRR>E combined; individual residues not printed), sequence (P63010 whole entry, looked up, change not shown): as the sequence (P63010 whole entry, looked up, stated change not applied) above
μ2^PIP-Core (AP2 core with the μ2 mutations 5K>E and KRR>E combined), sequence (P62743 whole entry, looked up, change not shown): as the sequence (P62743 whole entry, looked up, stated change not applied) above
μ2^PIP-Core (AP2 core with the μ2 mutations 5K>E and KRR>E combined), sequence (P84092 whole entry, looked up, change not shown): as the sequence (P84092 whole entry, looked up, stated change not applied) above
μ2^PIP-Core (AP2 core with the μ2 mutations 5K>E and KRR>E combined), sequence (P63010 whole entry, looked up, change not shown): as the sequence (P63010 whole entry, looked up, stated change not applied) above
AP2 core (recombinant; α trunk, β2 trunk, myc-tagged μ2, σ2) (from UniProt P63010;P84092;P62743) β2:K5E; β2:K12E; β2:K26E; β2:K27E; β2:K29E; β2:K36E, sequence (P62743 whole entry, looked up, stated change not applied): as the sequence (P62743 whole entry, looked up, stated change not applied) above
AP2 core (recombinant; α trunk, β2 trunk, myc-tagged μ2, σ2) (from UniProt P63010;P84092;P62743) β2:K5E; β2:K12E; β2:K26E; β2:K27E; β2:K29E; β2:K36E, sequence (P84092 whole entry, looked up, stated change not applied): as the sequence (P84092 whole entry, looked up, stated change not applied) above
AP2 core (recombinant; α trunk, β2 trunk, myc-tagged μ2, σ2) (from UniProt P63010;P84092;P62743) β2:K5E; β2:K12E; β2:K26E; β2:K27E; β2:K29E; β2:K36E, sequence (P63010 whole entry, looked up, stated change not applied): as the sequence (P63010 whole entry, looked up, stated change not applied) above

## AP2 core (recombinant; α trunk, β2 trunk, myc-tagged μ2, σ2) (from UniProt P63010 1-592; P84092 1-236; P84092 237-435; P62743 1-142) (complex)
[1]
  pKd: 2.40
  relaxation time at 30 μM AP2 without heparin: 62.5 s
[2]
  pKd: 5.46
  koff: 2 s⁻¹
  kon: 1e+06 M⁻¹ s⁻¹
  relaxation time at 15 μM AP2 with heparin: 0.059 s
  relaxation time with heparin: 0.056 s
[3]
  pKd: 5.47

## AP2 core (recombinant; α trunk, β2 trunk, myc-tagged μ2, σ2) (from UniProt P63010;P84092;P62743) αPIP- (substitutions in the PtdIns4,5P2-binding site of α; not printed)
[4]
  pKd: < 4.52
[5]; 200 nM AP2 core, PtdIns4,5P2/CD4P liposomes, corrected for non-specific binding to PC/PE liposomes, baseline about 40 RU, parent: est. 1400, read off a plot
  response: 180 RU
[6]; 200 nM AP2 core, PtdIns4,5P2/TGN38 liposomes, corrected for non-specific binding to PC/PE liposomes, baseline about 80 RU, parent: est. 1800, read off a plot
  response: 330 RU
[6]
  pKd: < 4.52

## AP2 core (recombinant; α trunk, β2 trunk, myc-tagged μ2, σ2) (from UniProt P63010;P84092;P62743) β2:K5E; β2:K12E; β2:K26E; β2:K27E; β2:K29E; β2:K36E
[4]
  pKd: < 4.52

## AP2 core (recombinant; α trunk, β2 trunk, myc-tagged μ2, σ2) (from UniProt P63010;P84092;P62743) μ2 5K>E (five lysines of the second basic region of C-μ2 to glutamate; residues not printed)
[7]
  pKd: 4.96
[5]
  pKd: 6.02
[6]
  pKd: 6.28

## AP2 core (recombinant; α trunk, β2 trunk, myc-tagged μ2, σ2) (from UniProt P63010;P84092;P62743) μ2 KRR>E (three basic residues of the third basic region of C-μ2 to glutamate; residues not printed)
[7]
  pKd: 5.12
[5]
  pKd: 6.07
[6]
  pKd: 6.48

## AP2 core (recombinant; α trunk, β2 trunk, myc-tagged μ2, σ2) (from UniProt P63010;P84092;P62743) μ2PIP- (μ2 5K>E and μ2 KRR>E combined; individual residues not printed)
[4]
  pKd: 6.55
[7]
  pKd: 4.52
[5]
  pKd: 5.60
[6]
  pKd: 5.21

## isolated C-terminal domain of μ2 (C-μ2) (from UniProt P84092 1-435) (domain or fragment)
[1]
  pKd: 6.30
  relaxation time at 15 μM C-μ2: 0.0073 s

## μ2Thr156Glu AP2 core (from UniProt P63010 1-592; P84092 1-236; P84092 237-435; P62743 1-142) (complex)
[8]
  fold less binding than phosphorylated AP2 core: 20 fold
  fold weaker binding than wild-type core: 4 fold

## μ2^PIP-Core (AP2 core with the μ2 mutations 5K>E and KRR>E combined) (from UniProt P63010 1-592; P84092 1-236; P84092 237-435; P62743 1-142) (complex)
[9]
  fold reduction of binding to PtdIns4,5P2/[ED]xxxL[LI] liposomes against the wild-type core: 3 fold
[10]
  fold inhibition of binding to PtdIns4,5P2/YxxΦ liposomes against the wild-type core: 20 fold
